# Measurements published in publication PMC12802937 (Nucleic Acids Research, 2026).
# Changes are numbered by the printed parent chain. Numbers in names are those of the source.
# B1: Lge1-CT E301K/R305E (domain or fragment, budding yeast, UniProt Q02796 261-332, looked up)
# chain: KNVKKTNNTESECEKAREVFKESDSIDSALEELNLKINSNKLELELLNNQCDKHALNIQLTQEKLDSLLLMQ
# notes: Lge1, budding yeast, residues 261-332; source: E. coli BL21 Rosetta (DE3): cleared cell extract on chitin resin (pull-down); purified (chitin, heparin, gel filtration) for ITC and SPR
# B2: Lge1-CT E303K (domain or fragment, budding yeast, UniProt Q02796 261-332, looked up)
# chain: B1 chain with K41E, E43K, E45R
# notes: as for B1
# B3: Lge1-CT I318D (domain or fragment, budding yeast, UniProt Q02796 261-332, looked up)
# chain: B1 chain with K41E, E45R, I58D
# notes: as for B1
# B4: Lge1-CT K313E/H314E (domain or fragment, budding yeast, UniProt Q02796 261-332, looked up)
# chain: B1 chain with K41E, E45R, K53E, H54E
# notes: as for B1
# B5: Lge1-CT K324E (domain or fragment, budding yeast, UniProt Q02796 261-332, looked up)
# chain: B1 chain with K41E, E45R, K64E
# notes: as for B1
# B6: Lge1-CT L316N (domain or fragment, budding yeast, UniProt Q02796 261-332, looked up)
# chain: B1 chain with K41E, E45R, L56N
# notes: as for B1
# B7: Lge1-CT L320N (domain or fragment, budding yeast, UniProt Q02796 261-332, looked up)
# chain: B1 chain with K41E, E45R, L60N
# notes: as for B1
# B8: Lge1-CT L325N (domain or fragment, budding yeast, UniProt Q02796 261-332, looked up)
# chain: B1 chain with K41E, E45R, L65N
# notes: as for B1
# B9: Lge1, 6× histidine tag, purified (natural protein, budding yeast, UniProt Q02796 1-332, looked up)
# chain: MSGYTGNNYSRYSSTPPRQRGGYHHARRSRGGAGGSYYRGGNASYGARYNSDYEQPPQEGDLRQTGAYYRNGYTDTRPYYSANSRHYQAQPSPRYNNGTNSYHLPQRGNSQDTNGRTTSASQEDNDEKRVKSRYRNMQADHPRQQPMSVGSTSSRNGSSGNSSTSSTSNGLPPPPSVSSITNNRSYHSSAYPYSSSHTYNNYHHRETPPPPPSNGYYAKGYPVHVPENRSNSDGSSSSVVKKKRILDMKDSPFIYLTDFDKNVKKTNNTESECEKAREVFKESDSIDSALEELNLKINSNELELRLLNNQCDKHALNIQLTQEKLDSLLLMQ
# notes: Lge1, budding yeast; source: E. coli BL21 Rosetta (DE3), purified (Ni-NTA in 8 M urea, urea removed by washing)
# B10: intein-CBD-tagged WAC-CT (WAC residues 570–647) (domain or fragment, human, UniProt Q9BTA9 570-647, looked up)
# chain: HVQGWPADHAEKQASRLREEAHNMGTIHMSEICTELKNLRSLVRVCEIQATLREQRILFLRQQIKELEKLKNQNSFMV
# notes: WAC, human, residues 570-647; purified on Ni-NTA although no histidine tag is named; also called intein-WAC; WT; source: purified (Ni-NTA, heparin, gel filtration)
# B11: intein-WAC S3 (R622E/E623K/R625E) (domain or fragment, human, UniProt Q9BTA9 570-647, looked up)
# chain: B10 chain with R53E, E54K, R56E
# notes: WAC, human, residues 570-647; source: purified (Ni-NTA, heparin, gel filtration)
# B12: intein-WAC S2 (E604K/K606E/R609E/R613E/E616K) (domain or fragment, human, UniProt Q9BTA9 570-647, looked up)
# chain: B10 chain with E35K, K37E, R40E, R44E, E47K
# notes: as for B11
# B13: intein-WAC S1 (D577K/E580K/R587E) (domain or fragment, human, UniProt Q9BTA9 570-647, looked up)
# chain: B10 chain with D8K, E11K, R18E
# notes: as for B11
# B14: intein-WAC S4 (R630E) (domain or fragment, human, UniProt Q9BTA9 570-647, looked up)
# chain: B10 chain with R61E
# notes: as for B11
# B15: intein-WAC S5 (E635K/E637K/K640E) (domain or fragment, human, UniProt Q9BTA9 570-647, looked up)
# chain: B10 chain with E66K, E68K, K71E
# notes: as for B11
# Target: T1, Bre1-LR (Bre1 residues 227–700, LBD and RING domains), 6× histidine tag (budding yeast, UniProt Q07457 227-700)
# T1 construct: two Bre1 polypeptides form the dimeric coiled-coils of the LBD in the crystal structure; also called WT; source: E. coli BL21 Rosetta (DE3), purified (Ni-NTA, heparin, gel filtration)
# T1 sequence (looked up): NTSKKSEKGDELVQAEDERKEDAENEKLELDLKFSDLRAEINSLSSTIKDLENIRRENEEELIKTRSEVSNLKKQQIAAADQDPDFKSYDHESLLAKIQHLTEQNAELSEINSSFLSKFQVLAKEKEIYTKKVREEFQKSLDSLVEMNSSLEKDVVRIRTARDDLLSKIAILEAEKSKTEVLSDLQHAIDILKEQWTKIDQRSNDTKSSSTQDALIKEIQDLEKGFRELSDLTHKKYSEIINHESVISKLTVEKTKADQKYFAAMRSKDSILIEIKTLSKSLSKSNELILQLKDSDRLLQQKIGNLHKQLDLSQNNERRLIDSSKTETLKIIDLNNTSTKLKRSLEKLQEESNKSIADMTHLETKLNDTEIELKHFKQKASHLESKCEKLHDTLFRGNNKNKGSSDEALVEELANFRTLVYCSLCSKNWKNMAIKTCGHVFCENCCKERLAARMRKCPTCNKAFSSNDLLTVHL
# Assay: SPR; Lge1-CT immobilised on a CM5 chip, Bre1-LR flown over; Biacore 8K, 25°C, 20 mM HEPES (pH 7.5), 200 mM sodium chloride, 0.02% Tween 20
# Conditions: both partners purified
Binder,Kd,koff,kon
B1,81.7 nM,,
B2,63.8 nM,,
B3,20.7 nM,0.00155 s⁻¹,74800 M⁻¹ s⁻¹
B4,51.8 nM,0.00947 s⁻¹,183000 M⁻¹ s⁻¹
B5,49.8 nM,0.00509 s⁻¹,102000 M⁻¹ s⁻¹
B6,62.8 nM,0.00527 s⁻¹,84000 M⁻¹ s⁻¹
B7,50.8 nM,0.00417 s⁻¹,82000 M⁻¹ s⁻¹
B8,58.7 nM,0.00328 s⁻¹,55900 M⁻¹ s⁻¹

# Target: T1, Bre1-LR (Bre1 residues 227–700, LBD and …)
# Assay: ITC; Lge1-CT (50–60 μM) injected into Bre1-LR (15 μM); 25°C, 20 mM TRIS (pH 7.5), 200 mM sodium chloride
# Conditions: both partners purified
Binder,Kd,dH,stoichiometry N
B1,59.7 ± 38.2 nM,-19.4 ± 2.3 kcal/mol,0.585 ± 0.022
B2,132 ± 24 nM,-46.7 ± 2.2 kcal/mol,0.587 ± 0.011
B3,21.1 ± 3.7 nM,-53.6 ± 0.8 kcal/mol,0.37 ± 0.022
B4,33.9 ± 8.4 nM,-43.6 ± 1.1 kcal/mol,0.392 ± 0.005
B5,8.77 ± 2.09 nM,-48 ± 0.7 kcal/mol,0.329 ± 0.001
B6,52.2 ± 4.9 nM,-65.4 ± 0.7 kcal/mol,0.293 ± 0.002
B7,23.7 ± 3.8 nM,-49.9 ± 0.6 kcal/mol,0.37 ± 0.002
B8,8.06 ± 1.52 nM,-61.2 ± 0.6 kcal/mol,0.367 ± 0.001

# Target: T2, Bre1, 6× histidine tag, purified (budding yeast, UniProt Q07457 1-700)
# T2 construct: Bre1, budding yeast; the BRE1 gene inserted into pET26b; source: E. coli BL21 Rosetta (DE3), purified (Ni-NTA, heparin, gel filtration)
# T2 sequence (looked up): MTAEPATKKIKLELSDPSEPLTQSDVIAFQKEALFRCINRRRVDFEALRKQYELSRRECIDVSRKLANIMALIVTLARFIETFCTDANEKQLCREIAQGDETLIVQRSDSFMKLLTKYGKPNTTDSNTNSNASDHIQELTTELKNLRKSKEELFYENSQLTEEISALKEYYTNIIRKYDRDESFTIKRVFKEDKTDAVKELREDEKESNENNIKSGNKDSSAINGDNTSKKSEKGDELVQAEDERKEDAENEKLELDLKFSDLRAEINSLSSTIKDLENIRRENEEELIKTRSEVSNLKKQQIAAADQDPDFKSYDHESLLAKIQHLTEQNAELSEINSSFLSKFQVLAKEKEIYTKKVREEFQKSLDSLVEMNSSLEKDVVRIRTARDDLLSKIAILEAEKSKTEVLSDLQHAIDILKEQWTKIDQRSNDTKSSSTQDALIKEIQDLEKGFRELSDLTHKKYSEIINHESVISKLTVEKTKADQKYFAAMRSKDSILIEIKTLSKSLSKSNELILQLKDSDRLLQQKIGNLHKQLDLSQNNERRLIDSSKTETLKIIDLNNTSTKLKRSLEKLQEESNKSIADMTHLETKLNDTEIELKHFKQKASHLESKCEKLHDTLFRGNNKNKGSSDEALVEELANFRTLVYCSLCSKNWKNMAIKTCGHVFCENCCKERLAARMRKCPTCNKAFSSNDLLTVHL
# Assay: co-sedimentation; 5%–45% sucrose gradient, purified Bre1, Lge1 or their mixture; 20 mM TRIS (pH 7.5), 10 mM potassium chloride, 5 mM magnesium chloride; 27 000 rpm, 15 h, 4°C
# Conditions: both partners purified
row,Binder,binding result
1,B9,binds

# Target: T3, RNF-MD S1i (E822K/R826E in RNF20 and K860E in RNF40) (human, UniProt Q5VTR2 321-900; O75150 327-926, E822K | R826E | K860E)
# T3 construct: RNF20, human, residues 321-900; RNF40, human, residues 327-926; source: E. coli BL21 Rosetta (DE3), purified from the mixed cell extract (strep-tactin, dextrin, gel filtration); copies: 1 + 1
# Assay: SPR; RNF-MD immobilised on a CM5 chip, intein-WAC flown over; Biacore 8K, 25°C, 20 mM HEPES (pH 7.5), 200 mM sodium chloride, 0.02% Tween 20
# Conditions: both partners purified
# T3 sequence (Q5VTR2 321-900 E822K/R826E, chain 1 of 2): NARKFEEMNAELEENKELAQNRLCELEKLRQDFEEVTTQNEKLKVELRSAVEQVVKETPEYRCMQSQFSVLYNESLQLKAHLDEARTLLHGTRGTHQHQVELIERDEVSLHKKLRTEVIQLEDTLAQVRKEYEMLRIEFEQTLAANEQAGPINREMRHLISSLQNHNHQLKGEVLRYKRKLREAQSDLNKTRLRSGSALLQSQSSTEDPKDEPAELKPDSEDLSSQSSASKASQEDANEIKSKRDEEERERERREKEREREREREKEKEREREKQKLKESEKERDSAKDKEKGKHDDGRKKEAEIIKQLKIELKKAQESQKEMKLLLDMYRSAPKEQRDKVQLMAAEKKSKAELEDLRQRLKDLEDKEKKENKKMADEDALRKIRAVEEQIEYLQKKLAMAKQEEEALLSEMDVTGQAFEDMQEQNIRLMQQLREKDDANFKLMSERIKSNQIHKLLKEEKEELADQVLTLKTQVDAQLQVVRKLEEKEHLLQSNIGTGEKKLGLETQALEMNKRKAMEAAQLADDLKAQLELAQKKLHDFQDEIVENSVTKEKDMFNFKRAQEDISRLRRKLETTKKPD
# T3 sequence (O75150 327-926 K860E, chain 2 of 2): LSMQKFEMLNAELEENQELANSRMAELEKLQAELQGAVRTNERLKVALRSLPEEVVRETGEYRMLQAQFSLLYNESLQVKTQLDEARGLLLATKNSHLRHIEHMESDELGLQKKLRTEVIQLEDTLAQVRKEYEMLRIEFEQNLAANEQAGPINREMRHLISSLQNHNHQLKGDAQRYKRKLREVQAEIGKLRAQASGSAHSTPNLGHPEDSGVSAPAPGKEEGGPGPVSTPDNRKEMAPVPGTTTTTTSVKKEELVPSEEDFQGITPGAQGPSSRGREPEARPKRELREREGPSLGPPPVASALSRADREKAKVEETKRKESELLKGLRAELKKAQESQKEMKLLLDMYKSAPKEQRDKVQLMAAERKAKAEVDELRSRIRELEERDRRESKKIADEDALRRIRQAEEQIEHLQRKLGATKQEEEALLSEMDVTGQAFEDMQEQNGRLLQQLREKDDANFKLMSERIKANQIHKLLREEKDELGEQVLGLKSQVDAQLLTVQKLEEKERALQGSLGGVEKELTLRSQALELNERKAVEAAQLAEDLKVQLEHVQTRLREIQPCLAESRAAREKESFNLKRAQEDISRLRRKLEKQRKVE
Binder,Kd,koff,kon
B10,539 nM,0.0168 s⁻¹,31300 M⁻¹ s⁻¹

# Target: T4, RNF-MD S3i (E783K/D786K in RNF20 and E449K/K818E in RNF40) (human, UniProt Q5VTR2 321-900; O75150 327-926, E783K | D786K | E449K | K818E)
# T4 construct: RNF20, human, residues 321-900; RNF40, human, residues 327-926; source: E. coli BL21 Rosetta (DE3), purified from the mixed cell extract (strep-tactin, dextrin, gel filtration); copies: 1 + 1
# Assay: as above
# Conditions: both partners purified
# T4 sequence (Q5VTR2 321-900 E783K/D786K, chain 1 of 2): as the sequence (Q5VTR2 321-900 E822K/R826E, chain 1 of 2) above, with E463K, D466K, K502E, E506R counted along it
# T4 sequence (O75150 327-926 E449K/K818E, chain 2 of 2): as the sequence (O75150 327-926 K860E, chain 2 of 2) above, with E123K, K492E, E534K counted along it
Binder,Kd,koff,kon
B11,285 nM,0.00308 s⁻¹,10800 M⁻¹ s⁻¹

# Target: T5, RNF-MD S2i (E427K/K804E in RNF20 and E428K/E431K/E434K/R442E/E832K/E835K in RNF40) (human, UniProt Q5VTR2 321-900; O75150 327-926, E427K | K804E | E428K | E431K | E434K | R442E | E832K | E835K)
# T5 construct: RNF20, human, residues 321-900; RNF40, human, residues 327-926; source: E. coli BL21 Rosetta (DE3), purified from the mixed cell extract (strep-tactin, dextrin, gel filtration); copies: 1 + 1
# Assay: as above
# Conditions: both partners purified
# T5 sequence (Q5VTR2 321-900 E427K/K804E, chain 1 of 2): as the sequence (Q5VTR2 321-900 E822K/R826E, chain 1 of 2) above, with E107K, K484E, K502E, E506R counted along it
# T5 sequence (O75150 327-926 E428K/E431K/E434K/R442E/E832K/E835K, chain 2 of 2): as the sequence (O75150 327-926 K860E, chain 2 of 2) above, with E102K, E105K, E108K, R116E, E506K, E509K, E534K counted along it
Binder,Kd,koff,kon
B12,262 nM,0.00338 s⁻¹,12900 M⁻¹ s⁻¹

# Target: T6, RNF-MD complex (strep-SUMO-RNF20 residues 321–900 with MBP-RNF40 residues 327–926) (human, UniProt Q5VTR2 321-900; O75150 327-926)
# T6 construct: RNF20, human, residues 321-900; RNF40, human, residues 327-926; heterodimer; also called RNF20/RNF40; WT; source: E. coli BL21 Rosetta (DE3), purified from the mixed cell extract (strep-tactin, dextrin, gel filtration); copies: 1 + 1
# Assay: as above
# Conditions: both partners purified
# T6 sequence (Q5VTR2 321-900, chain 1 of 2): as the sequence (Q5VTR2 321-900 E822K/R826E, chain 1 of 2) above, with K502E, E506R counted along it
# T6 sequence (O75150 327-926, chain 2 of 2): as the sequence (O75150 327-926 K860E, chain 2 of 2) above, with E534K counted along it
Binder,Kd,koff,kon
B10,504 nM,0.0234 s⁻¹,46400 M⁻¹ s⁻¹
B13,514 nM,0.0165 s⁻¹,32000 M⁻¹ s⁻¹
B14,1190 nM,0.0138 s⁻¹,11600 M⁻¹ s⁻¹
B15,325 nM,0.0143 s⁻¹,44100 M⁻¹ s⁻¹
